Results from article PMC4250934.

What was measured:
Assay in all cases: AUC
[1] = target: SODA_(BSn5), C-terminal SODA domain of SOD_(BSn5) (Bacillus subtilis BSn5)
[2] = target: SODA_(NG2215), NTD-deleted form of SOD_(NG2215) (SODA functional domain) (Geobacillus thermodenitrificans NG80-2)
[3] = target: SOD_(BSn5), Fe/Mn superoxide dismutase from Bacillus subtilis BSn5 (Bacillus subtilis BSn5)
[4] = target: SOD_(NG2215), Fe/Mn superoxide dismutase (cambialistic SOD) from Geobacillus thermodenitrificans NG80-2 (Geobacillus thermodenitrificans NG80-2)

## SODA_(BSn5), C-terminal SODA domain of SOD_(BSn5) (domain or fragment)
[1]
  stoichiometry N: 2

## SODA_(NG2215), NTD-deleted form of SOD_(NG2215) (SODA functional domain) (domain or fragment)
[2]
  stoichiometry N: 4

## SOD_(BSn5), Fe/Mn superoxide dismutase from Bacillus subtilis BSn5 (enzyme)
[3]
  stoichiometry N: 2

## SOD_(NG2215), Fe/Mn superoxide dismutase (cambialistic SOD) from Geobacillus thermodenitrificans NG80-2 (enzyme)
[4]
  stoichiometry N: 4
